Test results taken from IntAct's records for PubMed 35512704.

B1: Mothers against decapentaplegic homolog 4 (Homo sapiens), Q13485 (parent)
chain: MDNMSITNTPTSNDACLSIVHSLMCHRQGGESETFAKRAIESLVKKLKEKKDELDSLITAITTNGAHPSKCVTIQRTLDGRLQVAGRKGFPHVIYARLWRWPDLHKNELKHVKYCQYAFDLKCDSVCVNPYHYERVVSPGIDLSGLTLQSNAPSSMMVKDEYVHDFEGQPSLSTEGHSIQTIQHPPSNRASTETYSTPALLAPSESNATSTANFPNIPVASTSQPASILGGSHSEGLLQIASGPQPGQQQNGFTGQPATYHHNSTTTWTGSRTAPYTPNLPHHQNGHLQHHPPMPPHPGHYWPVHNELAFQPPISNHPAPEYWCSIAYFEMDVQVGETFKVPSSCPIVTVDGYVDPSGGDRFCLGQLSNVHRTEAIERARLHIGKGVQLECKGEGDVWVRCLSDHAVFVQSYYLDREAGRAPGDAVHKIYPSAYIKVFDLRQCHRQMQQQAATAQAAAAAQAAAVAGNIPGPGSVGGIAPAISLSAAAGIGVDDLRRLCILRMSFVKGWGPDYPRQSIKETPCWIEIHLHRALQLLDEVLHTMPIADPQPLD
partner: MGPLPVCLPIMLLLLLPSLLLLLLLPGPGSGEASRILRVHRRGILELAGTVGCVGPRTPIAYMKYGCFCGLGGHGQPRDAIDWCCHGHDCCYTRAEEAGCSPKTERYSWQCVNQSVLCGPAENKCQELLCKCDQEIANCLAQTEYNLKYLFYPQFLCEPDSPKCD
B2: Mothers against decapentaplegic homolog 4 (Homo sapiens), Q13485 (parent)
chain: B1 chain
partner: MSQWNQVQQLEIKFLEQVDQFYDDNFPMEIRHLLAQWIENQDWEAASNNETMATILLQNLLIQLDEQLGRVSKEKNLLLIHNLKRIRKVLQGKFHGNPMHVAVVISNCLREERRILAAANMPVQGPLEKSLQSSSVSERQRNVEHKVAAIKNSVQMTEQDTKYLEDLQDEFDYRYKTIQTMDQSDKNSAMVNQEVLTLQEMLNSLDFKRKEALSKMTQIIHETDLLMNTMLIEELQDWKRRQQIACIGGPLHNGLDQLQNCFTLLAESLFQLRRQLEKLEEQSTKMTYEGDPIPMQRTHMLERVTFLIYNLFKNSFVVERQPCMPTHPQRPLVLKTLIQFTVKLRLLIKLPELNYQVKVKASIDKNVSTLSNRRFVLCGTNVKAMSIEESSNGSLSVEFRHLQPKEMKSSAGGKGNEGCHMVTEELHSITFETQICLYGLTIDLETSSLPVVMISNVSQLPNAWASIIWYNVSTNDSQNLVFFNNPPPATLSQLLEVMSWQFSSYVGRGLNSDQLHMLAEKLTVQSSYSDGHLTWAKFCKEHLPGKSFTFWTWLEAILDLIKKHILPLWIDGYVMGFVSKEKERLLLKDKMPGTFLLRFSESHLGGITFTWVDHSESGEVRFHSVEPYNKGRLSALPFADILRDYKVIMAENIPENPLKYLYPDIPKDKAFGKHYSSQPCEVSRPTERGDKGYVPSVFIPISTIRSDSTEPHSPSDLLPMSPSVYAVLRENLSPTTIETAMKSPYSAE
B3: Mothers against decapentaplegic homolog 4 (Homo sapiens), Q13485 (parent)
chain: B1 chain
partner: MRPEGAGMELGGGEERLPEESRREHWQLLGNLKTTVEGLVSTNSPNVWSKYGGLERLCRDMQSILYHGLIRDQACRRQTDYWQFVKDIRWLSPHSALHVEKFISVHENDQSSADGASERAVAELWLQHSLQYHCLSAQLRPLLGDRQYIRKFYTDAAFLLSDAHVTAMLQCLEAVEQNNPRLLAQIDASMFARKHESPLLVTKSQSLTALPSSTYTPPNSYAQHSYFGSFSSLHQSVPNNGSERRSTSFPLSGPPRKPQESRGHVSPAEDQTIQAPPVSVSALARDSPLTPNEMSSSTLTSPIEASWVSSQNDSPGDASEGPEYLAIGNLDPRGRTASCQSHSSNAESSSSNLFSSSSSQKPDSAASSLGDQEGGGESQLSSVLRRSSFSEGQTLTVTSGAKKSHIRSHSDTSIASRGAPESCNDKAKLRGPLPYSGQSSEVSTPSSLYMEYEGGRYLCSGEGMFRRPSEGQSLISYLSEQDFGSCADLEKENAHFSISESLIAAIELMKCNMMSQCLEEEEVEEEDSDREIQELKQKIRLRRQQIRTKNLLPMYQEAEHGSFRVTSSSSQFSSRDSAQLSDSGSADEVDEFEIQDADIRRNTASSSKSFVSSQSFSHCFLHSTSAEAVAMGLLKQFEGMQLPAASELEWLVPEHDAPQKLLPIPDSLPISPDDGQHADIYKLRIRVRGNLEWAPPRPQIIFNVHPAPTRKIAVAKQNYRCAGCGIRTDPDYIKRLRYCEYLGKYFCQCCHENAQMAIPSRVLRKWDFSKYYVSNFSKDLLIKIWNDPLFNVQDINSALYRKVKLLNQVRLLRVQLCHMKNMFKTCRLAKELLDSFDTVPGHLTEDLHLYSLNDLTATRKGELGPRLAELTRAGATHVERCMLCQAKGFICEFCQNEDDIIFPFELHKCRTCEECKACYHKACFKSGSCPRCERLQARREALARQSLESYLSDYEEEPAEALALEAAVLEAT
B4: Mothers against decapentaplegic homolog 4 (Homo sapiens), Q13485 (parent)
chain: B1 chain
partner: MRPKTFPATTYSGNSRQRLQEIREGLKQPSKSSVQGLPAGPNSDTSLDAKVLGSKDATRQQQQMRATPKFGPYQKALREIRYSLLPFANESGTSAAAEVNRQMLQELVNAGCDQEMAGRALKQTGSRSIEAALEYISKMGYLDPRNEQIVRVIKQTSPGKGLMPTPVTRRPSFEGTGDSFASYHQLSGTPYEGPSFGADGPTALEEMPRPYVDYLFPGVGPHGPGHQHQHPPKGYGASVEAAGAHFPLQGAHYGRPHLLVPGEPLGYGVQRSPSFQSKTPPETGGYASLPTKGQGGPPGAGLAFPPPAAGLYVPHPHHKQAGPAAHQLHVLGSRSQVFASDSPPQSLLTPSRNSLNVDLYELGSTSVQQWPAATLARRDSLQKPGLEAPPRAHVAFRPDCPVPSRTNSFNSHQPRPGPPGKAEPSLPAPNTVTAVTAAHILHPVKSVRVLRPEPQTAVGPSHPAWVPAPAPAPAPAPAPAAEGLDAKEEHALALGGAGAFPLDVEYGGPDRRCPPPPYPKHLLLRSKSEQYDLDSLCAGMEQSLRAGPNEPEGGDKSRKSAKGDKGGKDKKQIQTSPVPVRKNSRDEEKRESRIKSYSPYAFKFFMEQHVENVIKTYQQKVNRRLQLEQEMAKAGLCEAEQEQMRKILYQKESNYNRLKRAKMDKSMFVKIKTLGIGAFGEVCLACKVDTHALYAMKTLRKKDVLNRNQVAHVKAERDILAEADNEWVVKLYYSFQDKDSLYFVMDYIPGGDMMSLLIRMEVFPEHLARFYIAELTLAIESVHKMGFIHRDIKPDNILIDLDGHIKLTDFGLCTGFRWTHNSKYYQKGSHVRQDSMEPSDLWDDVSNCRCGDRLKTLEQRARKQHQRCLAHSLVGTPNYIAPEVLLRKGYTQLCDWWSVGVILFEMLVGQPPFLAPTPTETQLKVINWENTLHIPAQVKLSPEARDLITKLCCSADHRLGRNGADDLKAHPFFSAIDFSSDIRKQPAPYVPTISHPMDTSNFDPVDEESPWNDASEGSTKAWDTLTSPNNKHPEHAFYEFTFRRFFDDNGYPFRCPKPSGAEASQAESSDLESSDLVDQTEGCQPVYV
B5: Mothers against decapentaplegic homolog 4 (Homo sapiens), Q13485 (parent)
chain: B1 chain
partner: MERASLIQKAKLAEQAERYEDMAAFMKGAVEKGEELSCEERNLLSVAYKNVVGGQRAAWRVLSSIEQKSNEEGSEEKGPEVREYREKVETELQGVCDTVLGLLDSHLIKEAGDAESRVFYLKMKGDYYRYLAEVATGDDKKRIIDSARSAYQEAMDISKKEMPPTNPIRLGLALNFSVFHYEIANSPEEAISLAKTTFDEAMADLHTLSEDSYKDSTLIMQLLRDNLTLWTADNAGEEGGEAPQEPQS
B6: Mothers against decapentaplegic homolog 4 (Homo sapiens), Q13485 (parent)
chain: B1 chain
partner: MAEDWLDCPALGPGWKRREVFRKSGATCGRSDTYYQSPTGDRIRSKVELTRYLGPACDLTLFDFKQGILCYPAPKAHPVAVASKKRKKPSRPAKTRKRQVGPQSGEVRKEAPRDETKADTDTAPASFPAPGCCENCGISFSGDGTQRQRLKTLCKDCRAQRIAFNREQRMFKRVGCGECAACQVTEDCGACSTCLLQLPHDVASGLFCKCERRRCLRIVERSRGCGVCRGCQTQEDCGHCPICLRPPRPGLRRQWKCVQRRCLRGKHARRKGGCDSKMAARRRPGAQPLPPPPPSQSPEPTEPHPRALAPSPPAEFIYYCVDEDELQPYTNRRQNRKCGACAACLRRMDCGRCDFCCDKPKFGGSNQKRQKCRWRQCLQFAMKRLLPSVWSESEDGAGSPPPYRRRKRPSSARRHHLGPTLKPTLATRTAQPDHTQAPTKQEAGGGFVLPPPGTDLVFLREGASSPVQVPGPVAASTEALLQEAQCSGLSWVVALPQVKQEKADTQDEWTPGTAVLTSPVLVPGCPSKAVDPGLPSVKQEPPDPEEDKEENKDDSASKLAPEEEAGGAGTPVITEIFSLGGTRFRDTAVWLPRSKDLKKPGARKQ
B7: Mothers against decapentaplegic homolog 4 (Homo sapiens), Q13485 (parent)
chain: B1 chain
partner: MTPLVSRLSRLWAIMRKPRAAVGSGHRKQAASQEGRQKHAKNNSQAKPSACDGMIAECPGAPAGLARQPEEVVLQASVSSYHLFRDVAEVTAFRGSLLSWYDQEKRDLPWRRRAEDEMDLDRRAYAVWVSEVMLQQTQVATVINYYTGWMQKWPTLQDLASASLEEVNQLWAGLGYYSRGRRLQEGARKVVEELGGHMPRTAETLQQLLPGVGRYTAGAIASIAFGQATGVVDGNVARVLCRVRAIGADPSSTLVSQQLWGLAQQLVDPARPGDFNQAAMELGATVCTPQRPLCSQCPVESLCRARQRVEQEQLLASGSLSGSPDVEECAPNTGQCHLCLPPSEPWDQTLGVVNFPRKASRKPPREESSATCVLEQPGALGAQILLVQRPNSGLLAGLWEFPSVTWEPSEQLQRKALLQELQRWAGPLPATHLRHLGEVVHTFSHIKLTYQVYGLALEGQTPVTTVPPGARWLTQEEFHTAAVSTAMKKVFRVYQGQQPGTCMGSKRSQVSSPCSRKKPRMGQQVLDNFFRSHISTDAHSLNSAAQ

Variants of: B1
Conditions: with pa2gx_human PLA2G10, O15496

effect of a mutation on the interaction	Variant
with no effect	G386D

Variants of: B1
Conditions: with pa2gx_human PLA2G10, O15496
Remark: another data set of the same source

effect of a mutation on the interaction	Variant
with no effect	D351H

Variants of: B1
Conditions: with pa2gx_human PLA2G10, O15496
Remark: another data set of the same source

effect of a mutation on the interaction	Variant
with no effect	R361C

Variants of: B2
Conditions: with stat4_human STAT4, Q14765

effect of a mutation on the interaction	Variant
with no effect	G386D

Variants of: B2
Conditions: with stat4_human STAT4, Q14765
Remark: another data set of the same source

effect of a mutation on the interaction	Variant
with no effect	R361H

Variants of: B2
Conditions: with stat4_human STAT4, Q14765
Remark: another data set of the same source

effect of a mutation on the interaction	Variant
with no effect	R361C

Variants of: B2
Conditions: with stat4_human STAT4, Q14765
Remark: another data set of the same source

effect of a mutation on the interaction	Variant
with no effect	D351H

Variants of: B3
Conditions: with rubic_human RUBCN

effect of a mutation on the interaction	Variant
with no effect	D351H

Variants of: B3
Conditions: with rubic_human RUBCN
Remark: another data set of the same source

effect of a mutation on the interaction	Variant
with no effect	R361H

Variants of: B3
Conditions: with rubic_human RUBCN
Remark: another data set of the same source

effect of a mutation on the interaction	Variant
with no effect	R361C

Variants of: B3
Conditions: with rubic_human RUBCN
Remark: another data set of the same source

effect of a mutation on the interaction	Variant
with no effect	G386D

Variants of: B4
Conditions: with lats2_human LATS2, Q9NRM7

effect of a mutation on the interaction	Variant
with no effect	G386D

Variants of: B4
Conditions: with lats2_human LATS2, Q9NRM7
Remark: another data set of the same source

effect of a mutation on the interaction	Variant
with no effect	D351H

Variants of: B4
Conditions: with lats2_human LATS2, Q9NRM7
Remark: another data set of the same source

effect of a mutation on the interaction	Variant
with no effect	R361C

Variants of: B4
Conditions: with lats2_human LATS2, Q9NRM7
Remark: another data set of the same source

effect of a mutation on the interaction	Variant
with no effect	R361H

Variants of: B5
Conditions: with 1433s_human SFN

effect of a mutation on the interaction	Variant
with no effect	R361H

Variants of: B5
Conditions: with 1433s_human SFN
Remark: another data set of the same source

effect of a mutation on the interaction	Variant
with no effect	G386D

Variants of: B5
Conditions: with 1433s_human SFN
Remark: another data set of the same source

effect of a mutation on the interaction	Variant
with no effect	D351H

Variants of: B6
Conditions: with mbd1_human MBD1, Q9UIS9

effect of a mutation on the interaction	Variant
with no effect	D351H

Variants of: B6
Conditions: with mbd1_human MBD1, Q9UIS9
Remark: another data set of the same source

effect of a mutation on the interaction	Variant
with no effect	G386D

Variants of: B6
Conditions: with mbd1_human MBD1, Q9UIS9
Remark: another data set of the same source

effect of a mutation on the interaction	Variant
with no effect	R361C

Variants of: B6
Conditions: with mbd1_human MBD1, Q9UIS9
Remark: another data set of the same source

effect of a mutation on the interaction	Variant
with no effect	R361H

Variants of: B7
Conditions: with mutyh_human MUTYH

effect of a mutation on the interaction	Variant
with no effect	D351H
